The source of these data is publication PMC13480645.

The Kd is the equilibrium constant for the complex coming apart. A low value points to tighter binding. Broadly, the kon is the rate constant with which the complex forms. Lower therefore signals slow association.

In assay [1] the target is SARS-CoV-2 S-2P protein (SARS-CoV-2 | bacteriophage T4).
The next assay concerns the target S2P6 (human). Kind of assay: BLI. In general terms: In BLI a coated tip is dipped into the sample, and binding shifts an interference pattern.

Sequence of S2P6 (human) (VH, as listed by the source, chain 1 of 2): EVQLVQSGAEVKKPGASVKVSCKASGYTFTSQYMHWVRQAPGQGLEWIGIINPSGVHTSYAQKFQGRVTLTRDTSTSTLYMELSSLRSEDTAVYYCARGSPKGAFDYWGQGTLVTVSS
Sequence of S2P6 (human) (VL, as listed by the source, chain 2 of 2): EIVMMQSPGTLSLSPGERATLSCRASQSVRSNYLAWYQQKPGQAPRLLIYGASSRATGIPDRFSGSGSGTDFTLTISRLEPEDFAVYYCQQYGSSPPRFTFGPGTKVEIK
Sequence of S2P6 (antibody) (VH): as the sequence (VH, as listed by the source, chain 1 of 2) above
Sequence of S2P6 (antibody) (VL): as the sequence (VL, as listed by the source, chain 2 of 2) above

Turning to S2P6 (antibody), the IC50 of neutralisation of SARS-CoV-2 pseudovirus (HeLa-hACE2 cells) in assay [1] amounted to 6.16 mg/L. In the assay with S2P6 (human), “SARS-CoV-2 S-2P protein (domain or fragment)” returned a Kd of 1.3 nM and a kon of 559000 M⁻¹ s⁻¹.
